From patent publication EP4631972A1, “SITE-SPECIFIC COUPLED PEGYLATED INTERLEUKIN-2 MUTANT WITH RECEPTOR AFFINITY PREFERENCE AND USE THEREOF” (priority 2022, dated 2024)

How the values were obtained:
Treg cells [1] = experiment: Pharmacodynamic (PD) study in mice, peripheral Treg cells; assay type: in vivo, Balb/c mice; conditions: 1 mg/kg s.c. single administration
Description: In this example, the pharmacodynamics (PD) of each IL-2 mutant obtained in Example 6 was studied in mice after a single administration to mice. SPF grade Balb/c mice were purchased and randomly divided into groups according to body weight, with 3 mice in each group. Drug administration started on the day of grouping. The dosing and grouping information is shown in Table 9, where G1-G5 were administered once, G6 and G7 were administered once a day, for a total of three doses. 30 µl of blood was taken from each group of mice, for PEGylated IL2 mutants and the negative control, blood was collected on day 0 (pre-administration), day 2, 3, 4, 5, 6 and 7 (only for G3, G4 and G5), and for IL2 and IL2-N88R, blood was collected on day 0 (pre-administration), day 1, 2 and 3. The number of each cell subpopulation was measured by flow cytometry. Antibodies against the staining marker used in flow cytometry are shown in Table 10, and the gating settings are shown in Table 11. Table 9 Dosing and grouping table for single-dose PD study in mice

[2] = Pharmacokinetic study in mice, single administration, plasma concentration by ELISA; conditions: 1 mg/kg s.c. single administration
Description: (§1) Balb/c mice were purchased, with 4 mice in each group. Each IL-2 mutant to be tested was administered subcutaneously once at a dose of 1 mg/kg. Blood was collected from the orbit at different time points after administration, and the plasma was separated and the plasma drug concentration was detected by ELISA. The main pharmacokinetic parameters were calculated, and C-T curve was plotted.

Treg cells [3] = experiment: P-STAT5 activation in Treg cells of human PBMCs (flow cytometry); assay type: cell-based; conditions: P-STAT5 MFI in CD3+/CD4+/CD25+ cells of human PBMCs, 30 min stimulation
Description: In the example, the activation effect of each mutant prepared in Example 6 on P-STAT5 in different cell subsets (Tregs, CD8+T cells, NK cells) from human PBMCs (Miaoshun Biotechnology) was detected.
Human PBMC cells were thawed and resuspended to 1.5×10^6 cells/ml in RPMI1640 medium containing 10% FBS. 100 µl was added to each well of a V-bottom 96-well culture plate. Each IL-2 mutant prepared in Example 6 was diluted 10-fold in series: 1000 nM was used as the working concentration for the first well, and then 100 µl/well of each serial dilution was added to each cultured cell, stimulated at 37°C for 30 min, and the reaction was terminated on ice. The cells were treated with a commercial fixative and permeabilization agent (BD biosciences 558049 & 558050), and stained with antibodies against CD3, CD4, CD25, and CD8 according to conventional methods. P-STAT5 antibody staining was also performed (Table 7) to detect the mean fluorescence intensity (MFI) of P-STAT5 in CD3+/CD4+/CD25+ (Treg cells) and CD8+/CD3+ cells ([…]) by flow cytometry.

[4] = Pharmacokinetic study in cynomolgus monkeys; conditions: cynomolgus monkey
Description: Blood was collected before and after administration (4h, 8h, 24h, 48h, 72h, 120h, 168h, 240h, 336h) in the first cycle and after administration (8h, 24h, 48h, 72h, 120h, 168h, 240h) in the second cycle to detect plasma drug concentration.

Treg cells [5] = experiment: Pharmacodynamic study in cynomolgus monkeys, peripheral Treg cells; assay type: in vivo; conditions: doses ≤400 µg/kg
Excerpt: For information on administration and grouping, see Table 14.

[6] = mouse, in vivo, sc, 1 mg/kg
Description: as §1

[7] = female, first-cycle dosing 50 µg/kg s.c.
[8] = female, second-cycle dosing 400 µg/kg s.c.
[9] = male, first-cycle dosing 50 µg/kg s.c.
[10] = male, second-cycle dosing 400 µg/kg s.c.

Q: Which “activation peak of Treg proportion, time” value (Treg cells [1]) does the source give for “60K-1PEG-IL2-N88R-N77C: IL2-N88R-N77C with 60 kDa PEG conjugated to the cysteine at position 77” here?
A: 6 days

Q: And the “increase in Treg proportion at peak” value (Treg cells [1])?
A: about 15 fold

Q: And the AUC inf [2]?
A: 392.06252 ± 33.89153 µg·h/mL

Q: And the AUClast [2]?
A: 380.55249 ± 34.19595 µg·h/mL

Q: What about the CL [2] of the same substance?
A: 2.56±0.22

Q: What about the Cmax [2] of the same substance?
A: 6633.54 ± 581.69 ng/mL

Q: What about the MRT [2] of the same substance?
A: 39.45 ± 0.44 h

Q: And the Tmax [2]?
A: 8 to 24 h

Q: And the mean half-life [2]?
A: 20.78 h

Q: And the “mean residence time (MRT)” value [2]?
A: 39.45 h

Q: And the EC50 (Treg cells [3])?
A: 0.0351 µM

Q: What about the AUC inf [4, 7] of the same substance?
A: 181.7098 µg·h/mL

Q: What about the AUClast [4, 7] of the same substance?
A: 148.6109 µg·h/mL

Q: What about the CL [4, 7] of the same substance?
A: 0.28

Q: What about the Cmax [4, 7] of the same substance?
A: 701.0718 ng/mL

Q: What about the MRT [4, 7] of the same substance?
A: 128.4211 h

Q: And the Tmax [4, 7]?
A: 72 h

Q: What about the AUC inf [4, 8] of the same substance?
A: 2158.472 µg·h/mL

Q: And the AUClast [4, 8]?
A: 1360.931 µg·h/mL

Q: What about the CL [4, 8] of the same substance?
A: 0.19

Q: What about the Cmax [4, 8] of the same substance?
A: 10419.65 ng/mL

Q: And the MRT [4, 8]?
A: 101.9 h

Q: What about the Tmax [4, 8] of the same substance?
A: 8 h

Q: And the AUC inf [4, 9]?
A: 213.0031 µg·h/mL

Q: What about the AUClast [4, 9] of the same substance?
A: 157.7992 µg·h/mL

Q: And the CL [4, 9]?
A: 0.23

Q: What about the Cmax [4, 9] of the same substance?
A: 815.2866 ng/mL

Q: And the MRT [4, 9]?
A: 135.9233 h

Q: And the Tmax [4, 9]?
A: 48 h

Q: What about the AUC inf [4, 10] of the same substance?
A: 2122.205 µg·h/mL

Q: What about the AUClast [4, 10] of the same substance?
A: 1412.112 µg·h/mL

Q: And the CL [4, 10]?
A: 0.19

Q: What about the Cmax [4, 10] of the same substance?
A: 10199.77 ng/mL

Q: What about the MRT [4, 10] of the same substance?
A: 100.7 h

Q: What about the Tmax [4, 10] of the same substance?
A: 8 h

Q: What about the “activation and proliferation of peripheral blood Treg cells” value (Treg cells [5]) of the same substance?
A: clear activation and proliferation

Q: And the T1/2 [6]?
A: 20.78 ± 1.92 h
